Measurements as given in patent publication US20070092489A1.
Values joined by “and” are separate entries in the source; they are usually repeats but may differ in a detail not shown here. Identical values can stand only once.

How the values were obtained:
[1] = target: adenovirus fiber knob as shown on Av3GFP adenoviral vector particles; test: cell-based or functional assay
[2] = target: adenovirus fiber knob as shown on Cy3-labeled adenoviral vector particles; test: depletion of Cy3-labeled adenovirus from suspension by fluorimetry; D1 tethered on nitinol
[3] = target: adenovirus fiber knob as shown on Cy3-labeled adenoviral vector particles; test: depletion of Cy3-labeled adenovirus from suspension by fluorimetry; D1 tethered on Co/Cr alloy
[4] = target: adenovirus fiber knob as shown on Cy3-labeled adenoviral vector particles; test: depletion of Cy3-labeled adenovirus; D1-tethered against anti-knob Ab-tethered metal surfaces
[5] = target: adenovirus fiber knob as shown on Cy3-labeled adenoviral vector particles; test: depletion of Cy3-labeled adenovirus from suspension by fluorimetry; D1 tethered on stainless steel

Substance	concentration required to achieve maximal GFP expression (Av3GFP transduction of SKOV-3 cells) [1]	amount of Ad bound per cm^2 of the surface [2]	amount of Ad bound per cm^2 of the surface [3]	fold greater adenovirus binding than the specific antibody (anti-knob Ab) [4]	amount of Ad bound per cm^2 of the surface [5]
D1-FGF2 fusion protein (CAR D1 ligated to basic fibroblast growth factor FGF2 by intein-mediated protein ligation) (from UniProt P78310 15-140; P09038 134-288)	14 nM	–	–	–	–
thiol-containing form of the D1 domain of the coxsackie-adenovirus receptor (D1-Cys), covalently immobilized on a metal surface (from UniProt P78310 15-140)	–	1.16e+10 Ad per cm^2	1.51e+10 Ad per cm^2	2 fold and 4 fold	1.08e+10 Ad per cm^2
